{
  "source": "paper PMC5384220",
  "about": "“Highly selective inhibition of histone demethylases by de novo macrocyclic peptides” (Nature Communications, 2017)",
  "binders": {"B1": {"name": "CP4 (peptide)", "chain": "YLKSRRSGLTWIPC", "modifications": "not fully specified; N-terminal L-Tyr (^LTyr library, N-chloroacetyl-L-Tyr) cyclised by a thioether to a downstream cysteine"}},
  "molecular_target": "T1, KDM4C (human, UniProt Q9H3R0 1-1056)",
  "T1 sequence (looked up)": "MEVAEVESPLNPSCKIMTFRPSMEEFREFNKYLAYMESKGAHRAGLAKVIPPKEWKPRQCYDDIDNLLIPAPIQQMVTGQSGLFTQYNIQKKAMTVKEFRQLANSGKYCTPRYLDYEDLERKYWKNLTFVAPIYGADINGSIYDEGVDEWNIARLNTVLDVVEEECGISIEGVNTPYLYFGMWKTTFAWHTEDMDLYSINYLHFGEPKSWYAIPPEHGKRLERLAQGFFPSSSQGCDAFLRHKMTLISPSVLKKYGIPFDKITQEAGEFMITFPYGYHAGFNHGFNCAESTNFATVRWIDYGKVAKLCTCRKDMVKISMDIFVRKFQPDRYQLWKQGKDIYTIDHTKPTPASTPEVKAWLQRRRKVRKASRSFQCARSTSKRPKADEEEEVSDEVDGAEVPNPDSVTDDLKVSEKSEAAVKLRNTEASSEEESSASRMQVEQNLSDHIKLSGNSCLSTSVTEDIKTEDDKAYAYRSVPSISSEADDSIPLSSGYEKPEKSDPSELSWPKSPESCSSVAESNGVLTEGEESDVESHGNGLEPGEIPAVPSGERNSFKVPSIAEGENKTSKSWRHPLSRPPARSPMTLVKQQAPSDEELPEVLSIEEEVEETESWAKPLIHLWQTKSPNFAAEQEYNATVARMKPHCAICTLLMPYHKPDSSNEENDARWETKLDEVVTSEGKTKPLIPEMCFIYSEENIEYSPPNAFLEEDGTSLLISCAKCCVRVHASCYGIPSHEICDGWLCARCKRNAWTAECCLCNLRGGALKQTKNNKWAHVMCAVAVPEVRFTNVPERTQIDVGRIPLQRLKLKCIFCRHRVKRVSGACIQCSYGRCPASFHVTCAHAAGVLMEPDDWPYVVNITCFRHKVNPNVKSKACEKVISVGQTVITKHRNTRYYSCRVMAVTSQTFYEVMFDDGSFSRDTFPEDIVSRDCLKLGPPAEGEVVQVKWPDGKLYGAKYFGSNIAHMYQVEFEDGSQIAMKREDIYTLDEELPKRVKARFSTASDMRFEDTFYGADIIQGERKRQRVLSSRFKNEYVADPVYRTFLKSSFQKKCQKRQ",
  "assay": "cell-based or functional assay",
  "data": [
    {"binder": "B1", "values": [
      {"measurement": "IC50 of inhibition of demethylase activity (AlphaScreen activity assay)", "value": 17, "unit": "nM"}
    ]}
  ]
}
